Laboratory results reported in US20130022590A1, “Compositions Comprising Zinc Finger Domains and Uses Therefor” (priority 2009, published 2013).

Key:
[1] = system: ssRNA containing two AGGUAA sites (AGGUAAAGGUAA, SEQ ID NO: 26); assay: Fluorescence anisotropy titration, double-site ssRNA; assay type: binding
Protocol: Fluorescence Anisotropy titrations e.g., as shown in FIGS. 1D-F, 8 and 35, were carried out using standard protocols. In brief, 5′-Fluorescein-labeled RNA oligonucleotides were quantified by A260, correcting for fluorescein absorbance by using A493. For single-site experiments, the sequence GCAACCAGGUAAAGUCU (SEQ ID NO: 28), or single base mutants thereof, was used. For double-site experiments, two AGGUAA sites were separated by different length sequences as indicated, and the total oligonucleotide lengths were kept constant by the symmetrical addition of adenines to each end. The anisotropy titrations were performed with a starting RNA concentration of 50 nM in a buffer comprising either 10 mM Tris (pH 8.0), 50 mM KCl, 5 mM MgCl2, 0.05 mg/mL heparin, and 1 mM DTT (for GST fusion constructs) or 10 mM Mops (pH 7.3), 50 mM NaCl, 0.05 mg/mL heparin, and 1 mM DTT (for ZRANB2-F12). RNasin (Promega) was also added to the protein solution to a concentration of 2 units/μL. Protein was titrated into this starting solution and anisotropy values measured on a Cary Eclipse fluorescence spectrophotometer fitted with manual polarizer and long-pass filters set to 475 and 515 nm for excitation and emission, respectively. Excitation and emission wavelengths were set at 495 and 520 nm, respectively (10-nm slits) and the temperature was maintained at 25° C. by using a block temperature controller. Association constants were determined by nonlinear least squares regression analysis using a 1:1 binding model.
The importance of the spacing between AGGUAA motifs was assessed by measuring binding of F12 to double sites that were separated by −1 to 8 nt (where −1 denotes the sequence AGGUAAGGUAA SEQ ID NO: 33; FIG. 1E, lanes 5-10).

[2] = system: 17-nt RNA oligonucleotide containing a single AGGUAA motif; assay: Gel shift assay of F12 with 17-nt oligonucleotide; assay type: binding
Protocol: Gel Shift assays e.g., FIGS. 1B, 32A, were carried out using standard protocols. In brief, oligonucleotides were 5′ end-labelled with T4 polynucleotide kinase and annealed. Binding reactions were set up in a volume of 30 μL and contained a constant concentration of ^32P-labeled probe (0.1 pmol) and increasing concentrations of F12, in a buffer consisting of 10 mM Mops (pH 7.2), 50 mM KCl, 5 mM MgCl2, 1 mM DTT, 0.03 mg/mL heparin, and 5% glycerol. Binding reactions were set up on ice and incubated at 4° C. for 30 min, after which time 15 μL of each sample was loaded onto a prerun 8% native polyacrylamide gel made up in 0.5× Tris-borate buffer, and electrophoresed (250V, 1 h, 4° C.). The oligonucleotide sequence used for gel shift experiments was GCAACCAGGUAAAGUCU (SEQ ID NO: 28); the site was mutated by changing the central GGU to CUG.
To determine whether the AGGUAA motif was sufficient for binding, the binding of the double finger construct F12 to a 17-nt RNA oligonucleotide containing a single AGGUAA motif was tested as described in Section 1.4 above with dsDNA, ssDNA, and dsRNA also tested as controls.

[3] = system: 5′ splice site from exon 3 of the Tra2β minigene (CUCUGAAUCUAGGUAAGAAAG); assay: Surface plasmon resonance competition binding; settings: 750 nM F12, 1 molar equivalent competitor RNA; compared with exons 1 and 2
Protocol: Competition binding experiments were carried out by flowing a solution of F12 over a streptavidin chip coated with a biotinylated ssRNA oligonucleotide (containing the sequence AGGUAA) in the presence of an unlabeled competitor oligonucleotide.
Binding experiments were performed in triplicate at 25° C. on a BIACORE 3000 (Biacore). A 5′ biotin-labeled RNA oligonucleotide containing the 5′ splice site from exon 3 of the Tra2β minigene ([…]; SEQ ID NO: 29) was purified by size exclusion chromatography (Superdex 75), and unlabeled competitor oligonucleotides i.e., GCGAGCGGUACGUAGA from exon 1 (SEQ ID NO: 30), AGGAAUAAGUGAAGCUG from exon 2 (SEQ ID NO: 31), and […] from exon 3 (SEQ ID NO: 32) were used without further purification. Protein and RNA samples were dialysed into 10 mM sodium phosphate (pH 7.2), 50 mM NaCl, 1 mM DTT, and 0.005% NP20 and filtered. The biotinylated RNA was heated to 65° C. for 5 min, cooled on ice, and then immobilized onto a streptavidin-coated sensor chip to a total of approximately 160 relative units. Solutions of 750 nM F12 in the presence of 1 molar equivalent of each competitor RNA were injected in random order over the sensor chip (at a flow rate of 20 μL/min for 120 sec) and allowed to undergo a 120-sec dissociation time; a further 300-sec interval was allowed between injections. Data were analyzed by using BIA Evaluation software (Biacore). […]

[4] = system: ssRNA pool containing a randomized 25-nt sequence; assay: SELEX in vitro site selection; assay type: binding; settings: up to 13 rounds of selection
Protocol: A ZRANB2-F12 SELEX protocol was developed, based on that used by Sakashita E. and Sakamoto H.1994 Acids Res 22:4082-4086. In brief, a library of ssRNA sequences was incubated with GST-F12 on glutathione Sepharose beads, and after washing protein—RNA complexes were eluted with glutathione and the selected RNA was reverse-transcribed and amplified by PCR. Sequencing of selected sequences was carried out after 7, 9, and 13 rounds of selection.
An oligonucleotide harbouring a 25-nucleoride (nt) random sequence surrounded by 2 primer binding sites with an estimated complexity of 1.2×10^12 (sampling complete sequence space for 20-nt sequences) was amplified by 10 rounds of PCR as previously described in Sakashita E., and Sakamoto H.1994 Nucleic Acids Res 22: 4082-4086, then purified by using a QIAquick gel extraction kit (e.g., QIAGEN) according to manufacturer's instructions. RNA was transcribed from 13 pmol of dsDNA template, then extracted with phenol/chloroform and ethanol-precipitated according to established methods in the art. The RNA pellet was resuspended in water […], and unincorporated nucleotides were removed by Sephadex G-25 Quick Spin columns (Roche). RNA was quantified by absorbance at 260 nm.
Binding reactions were carried out in SELEX buffer [10 mM Mops (pH 7.0), 50 mM KCl, 5 mM MgCl2, 5% glycerol, 1 mM DTT, 0.1% Triton, […], Complete protease inhibitor]. […]

B1: F12: F1 and F2 domains, residues 1-95 of human ZRANB2 (protein, UniProt O95218 1-95, looked up, fragment)
chain: MSTKNFRVSDGDWICPDKKCGNVNFARRTSCNRCGREKTTEAKMMKAGGTEIGKTLAEKSRGLFSANDWQCKTCSNVNWARRSECNMCNTPKYAK
modifications: F1-F2 zinc fingers GST fusion in some uses
notes: F1 and F2 domains, residues 1-95 of human ZRANB2
B1 was tested, and the “effect on binding of scrambling both sites” value ([1]; FIG. 1E, lane 3) was “effectively eliminated binding”, the “affinity (association constant) for AGGUAAAGGUAA” value ([1]; FIG. 1E, lane 6) was 1.9e+07 M⁻¹ and the “affinity for double site with cytosine-rich spacer versus penta-adenine spacer” value ([1]; FIG. 1E, lanes 10 and 8) was “same affinity”. The “affinity versus spacing between AGGUAA motifs” value ([1]; double sites separated by −1 to 8 nt, adenines inserted) was “increased monotonically”, the “effect on binding of randomizing one of the AGGUAA motifs” value ([1]; sequence AGAAUGAGGUAA, FIG. 1E, lane 4) was “reduced the binding by a small, but reproducible, amount” and the “effect of mutation of the central GGU to CUG” value [2] was “abrogated the interaction”. The “nucleic acid type selectivity of the interaction” value ([2]; dsDNA, ssDNA, dsRNA tested as controls) was “strongly selective for ssRNA”, the “reduction in binding to the chip by competitor 5′ splice site oligonucleotide of exon 3” value [3] was “largest reduction in binding” and the “consensus ssRNA sequence recognized” value [4] was “AGGUAA(N1-8)AGGUAA”.
